These results are taken from patent publication US20240254224A1 (UCB, published 2024).

Common to all, as to experiment: SPR (Biacore T200), TREM1 ECD over antibody captured by anti-human Fc
Background: In SPR one partner is held on a chip, and binding of the other changes the refractive index at the surface.

Assay [1] deals with T1, marmoset TREM1 ECD (in house, His tagged) (marmoset, UniProt A0A8I3WDM5 21-206).
T1 construct: extracellular domain
T1 sequence: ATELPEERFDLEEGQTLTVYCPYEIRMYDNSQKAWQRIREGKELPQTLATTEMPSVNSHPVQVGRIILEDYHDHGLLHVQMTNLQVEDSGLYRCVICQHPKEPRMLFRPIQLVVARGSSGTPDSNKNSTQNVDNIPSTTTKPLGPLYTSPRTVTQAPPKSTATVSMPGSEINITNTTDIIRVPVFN
Here is the method: (§1) The species tested were human, cynomolgus, rhesus, marmoset, rat, mouse, dog and pig.
(§2) TREM1 ECD analyte (in house, His tagged) was injected at 3-fold serial dilutions in HBS-EP+ running buffer (GE Healthcare), top concentrations are shown in Table 15, and three-fold serial dilutions were performed to a bottom concentration of 2 nM. Buffer blank injections were included to subtract instrument noise and drift.

Assay [2] deals with T2, mouse TREM1 ECD (in house, His tagged) (mouse, UniProt Q9JKE2 21-202).
T2 construct: extracellular domain
T2 sequence (looked up): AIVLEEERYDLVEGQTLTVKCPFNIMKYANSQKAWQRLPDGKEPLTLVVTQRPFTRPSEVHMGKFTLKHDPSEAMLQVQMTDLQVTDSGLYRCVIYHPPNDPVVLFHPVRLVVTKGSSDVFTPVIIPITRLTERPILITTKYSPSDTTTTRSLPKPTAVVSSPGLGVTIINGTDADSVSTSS
On the procedure: as §1, §2

The target of assay [3] is T3, pig TREM1 ECD (in house, His tagged) (pig, UniProt Q6TYI6 21-210).
T3 construct: extracellular domain
T3 sequence (looked up): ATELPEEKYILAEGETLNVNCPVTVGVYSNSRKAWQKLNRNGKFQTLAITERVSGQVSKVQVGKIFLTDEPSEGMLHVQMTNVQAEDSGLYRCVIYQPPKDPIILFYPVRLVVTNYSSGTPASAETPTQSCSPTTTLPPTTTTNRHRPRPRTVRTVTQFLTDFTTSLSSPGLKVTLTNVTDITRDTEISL
On the procedure:
as §1, §2

B1: 12172 gL2gH11 hIgG4P (antibody)
heavy: not shown
light: DIQLTQSPSFLSASVGDRVTITCQASQNIGSDLAWYQQKPGKAPKLLIYKAATLASGVPSRFSGSGSGTEFTLTISSLQPEDFATYYCQQYYYGSAGADTDTFGGGTKVEIKRTVAAPSVFIFPPSDEQLKSGTASVVCLLNNFYPREAKVQWKVDNALQSGNSQESVTEQDSKDSTYSLSSTLTLSKADYEKHKVYACEVTHQGLSSPVTKSFNRGEC
notes: Humanised IgG4P, human kappa; also called 12172gL2gH11 IgG4P
Consider B1, for which the binding result in assay [1] is recorded as “no binding (tested: 510 nM)”; in assay [2], “no binding (tested: 520 nM)”; in assay [3], “no binding (tested: 490 nM)”.
